Data on 2 substances can be found in doi:10.1101/2024.10.29.620959.

Broadly, the stoichiometry N is a count of units in the complex or per binding partner.

Test [1] addresses Mycobacterium tuberculosis FadD5 (fatty acyl-CoA synthetase, Rv0166), full length (Mycobacterium tuberculosis H37Rv). Description: native gel or EMSA.
The target is the same in test [2]. The test can be described thus: SEC-MALS. Background: In gel filtration, larger molecules generally elute earlier.
For test [3] the target is unchanged. The test can be described thus: SAXS.
In test [4] the target is FadD5(1-448), N-terminal domain construct of Mycobacterium tuberculosis FadD5 (Mycobacterium tuberculosis H37Rv). Description: SEC-MALS.

Take “Mycobacterium tuberculosis FadD5 (fatty acyl-CoA synthetase, Rv0166), full length (enzyme)”: the stoichiometry N in test [1], in test [2] and in test [3] was 2 throughout.

In test [4], “FadD5(1-448), N-terminal domain construct of Mycobacterium tuberculosis FadD5 (domain or fragment)” returned a stoichiometry N of 2.
